Laboratory results taken from patent US20260234234A1 (QILU PUGET SOUND BIOTHERAPEUTICS, published 2026).

How the values were obtained:
[1] = molecular target: T1, Avitag_c-MYC_His6_hTSLP QB11631 with mutations of R127A + R130S (human); assay: cell-based or functional assay
[2] = molecular target: Avitag_c-MYC_His6_hTSLP (wild type) QB11630 (human); assay: cell-based or functional assay
[3] = molecular target: Avitag_c-MYC_His6_hTSLP (wild type) QB11630 (human); assay: cell-based or functional assay; remark: listed apart in the source
[4] = molecular target: T1, Avitag_c-MYC_His6_hTSLP QB11631 with …; assay: cell-based or functional assay; remark: listed apart in the source
[5] = molecular target: T2, native hTSLP derived from human Small Airway Epithelial Cells (healthy donor 1 and donor 2) (human, UniProt Q969D9 29-159, limits assumed); assay: cell-based or functional assay
[6] = molecular target: T2, native hTSLP derived from human Small …; assay: cell-based or functional assay; remark: listed apart in the source
[7] = molecular target: T3, Avitag_FLAG_His6_cyTSLP QB11632 (wild type) (cynomolgus monkey); assay: cell-based or functional assay
T3 chain: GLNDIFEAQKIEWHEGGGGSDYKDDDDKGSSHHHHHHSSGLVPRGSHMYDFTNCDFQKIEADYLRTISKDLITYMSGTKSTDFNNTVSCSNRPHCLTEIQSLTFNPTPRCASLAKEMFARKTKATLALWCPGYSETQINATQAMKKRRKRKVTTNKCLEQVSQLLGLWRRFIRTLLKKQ

[8] = molecular target: T3, Avitag_FLAG_His6_cyTSLP QB11632 (wild …); assay: cell-based or functional assay
[9] = molecular target: Avitag_c-MYC_His6_hTSLP (wild type) QB11630 (human); assay: cell-based or functional assay; remark: listed apart in the source
[10] = molecular target: T3, Avitag_FLAG_His6_cyTSLP QB11632 (wild …); assay: cell-based or functional assay
[11] = molecular target: T3, Avitag_FLAG_His6_cyTSLP QB11632 (wild …); assay: cell-based or functional assay
[12] = molecular target: Avitag_c-MYC_His6_hTSLP (wild type) QB11630 (human); assay: cell-based or functional assay; remark: listed apart in the source
[13] = molecular target: T1, Avitag_c-MYC_His6_hTSLP QB11631 with …; assay: cell-based or functional assay; remark: listed apart in the source
[14] = molecular target: Avitag_c-MYC_His6_hTSLP (wild type) QB11630 (human); assay: cell-based or functional assay; remark: listed apart in the source
[15] = molecular target: T1, Avitag_c-MYC_His6_hTSLP QB11631 with …; assay: SPR, captured antibody, monomeric TSLP analyte, 25 C, 1:1 Langmuir fit
[16] = molecular target: T4, Avitag_c-MYC_His6_hTSLP (wild type) QB11630 (human); assay: as above
T4 construct: N-terminal tags are part of the entry; also called in-house hTSLP native antigen QB11630

[17] = molecular target: hTSLP, R&D Systems 1398-TS-010 (E. coli) (human, UniProt Q969D9 29-159, limits assumed); assay: as above
[18] = molecular target: T5, hTSLP, ACRO Biosystems TSP-H52Hb (HEK293) (human, UniProt Q969D9 29-159, limits assumed); assay: as above
T5 construct: also called Acro-WT

[19] = molecular target: T3, Avitag_FLAG_His6_cyTSLP QB11632 (wild …); assay: as above
[20] = molecular target: T6, Avitag_FLAG_His6_cyTSLP QB11633 with mutations of R127A + R130S (cynomolgus monkey); assay: as above
T6 construct: Substitutions and tags already in the entry; also called cyTSLP (R127A+R130S)
T6 chain: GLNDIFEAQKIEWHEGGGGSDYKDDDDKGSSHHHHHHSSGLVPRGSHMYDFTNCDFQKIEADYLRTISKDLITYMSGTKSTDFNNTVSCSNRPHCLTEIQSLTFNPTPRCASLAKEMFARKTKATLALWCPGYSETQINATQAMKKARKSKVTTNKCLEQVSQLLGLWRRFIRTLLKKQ

[21] = molecular target: T7, cyTSLP, ACRO Biosystems TSP-C52H8 (HEK293) (cynomolgus monkey, UniProt A0A7N9CAT7 29-159); assay: as above
T7 construct: also called Acro WT

[22] = molecular target: T8, cyTSLP (R127A, R130S), Sino Biological 90911-C08H-100 (HEK293) (cynomolgus monkey, UniProt A0A7N9CAT7 29-159); assay: as above
T8 construct: also called Sino-RA-RS

[23] = molecular target: T9, cyTSLP (R127A, R130S), ACRO Biosystems TSP-C52H4 (HEK293) (cynomolgus monkey, UniProt A0A7N9CAT7 29-159); assay: as above
T9 construct: also called Acro-RA-RS

[24] = molecular target: T1, Avitag_c-MYC_His6_hTSLP QB11631 with …; assay: cell-based or functional assay; remark: listed apart in the source
[25] = molecular target: T1, Avitag_c-MYC_His6_hTSLP QB11631 with …; assay: cell-based or functional assay; remark: listed apart in the source
[26] = molecular target: T6, Avitag_FLAG_His6_cyTSLP QB11633 with …; assay: cell-based or functional assay
[27] = molecular target: T4, Avitag_c-MYC_His6_hTSLP (wild type) …; assay: SPR, in-house hTSLP QB11630 analyte
[28] = molecular target: T10, Avitag_c-MYC_His6-tagged hIL-33 (Ser112-Thr270), QB10975 (human); assay: SPR (Biacore) blocking: mAb premixed with 10 nM hIL-33, flowed over ST2-Fc on a CM5 chip; blocked partner ST2-Fc
T10 construct: Entry includes N-terminal Avitag, c-MYC and His6 tags; reduced with DTT to the active form; also called active hIL-33; reduced hIL-33
T10 chain: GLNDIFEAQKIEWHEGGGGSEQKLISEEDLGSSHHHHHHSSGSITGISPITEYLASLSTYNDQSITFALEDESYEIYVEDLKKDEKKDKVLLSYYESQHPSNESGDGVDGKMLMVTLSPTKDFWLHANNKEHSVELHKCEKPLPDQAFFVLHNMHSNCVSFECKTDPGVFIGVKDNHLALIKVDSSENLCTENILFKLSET

[29] = molecular target: T10, Avitag_c-MYC_His6-tagged hIL-33 …; assay: SPR competition, antibody titrated against 10 nM hIL-33, over immobilised hST2-Fc
[30] = molecular target: T11, His6-tagged cyIL-33 (Ser112-Ile270), QB10976 (cynomolgus monkey); assay: SPR, Biacore T200
T11 construct: Entry includes N-terminal Avitag, FLAG and His6 tags; isoform X1, NCBI XP_005581824; also called cyIL-33 antigen
T11 chain: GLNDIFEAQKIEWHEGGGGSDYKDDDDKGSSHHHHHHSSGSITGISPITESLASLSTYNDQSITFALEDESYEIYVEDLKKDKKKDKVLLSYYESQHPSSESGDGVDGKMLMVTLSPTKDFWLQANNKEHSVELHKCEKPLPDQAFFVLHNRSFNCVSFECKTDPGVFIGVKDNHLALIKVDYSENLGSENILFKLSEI

B1: anti-hTSLP IgG1-D265A antibody QB11718 (antibody, V domains shown)
VH: QVQLVQSGPEVKKPGSSVKVSCKASGYIFTDYAMHWVRQRPGQDLEWMGTFIPLLDTSDYNQNFKGRATITADKSTSTAYMELSSLRSEDTAVYYCARMGVTHSYVMDAWGQGTLVTVSS
VL: EIVLTQSPGTLSLSPGERATLSCRASQHISRSVHWYQQKPGEAPRLLIYFASQSISGIPDRFSGSGSGTDFTLTISRLESEDFAVYYCQQSYSFPYTFGRGTKVEIKR
notes: QB11237 altered for MabPair production; alterations are in the entries; also called lead anti-hTSLP antibody QB11718
IC50, inhibition of hTSLP-induced IL-5 secretion from human ILC2s [1]: 0.35 nM
IC50, inhibition of hTSLP-induced IL-5 secretion from human ILC2s [2]: 0.1 nM
IC50, inhibition of TSLP-induced CCL17 release from primary human monocytes (ELISA, pg/mL); stimulus hTSLP QB11630 [3]: 0.0045 nM
IC50, inhibition of TSLP-induced pSTAT5 (AlphaLISA, MFI) in BaF3 cells expressing hTSLPR/hIL-7Rα; stimulus hTSLP QB11631 [4]: 0.78 nM
IC50, inhibition of TSLP-induced proliferation of BaF3 cells expressing hTSLPR/hIL-7Rα (CellTiter-Glo, RLU); stimulus native hTSLP from healthy donor 2 [5]: 0.0018 nM
IC50, inhibition of TSLP-induced proliferation of BaF3 cells expressing hTSLPR/hIL-7Rα (CellTiter-Glo, RLU); stimulus native hTSLP from healthy donor 1 [6]: 0.0014 nM
IC50, inhibition of TSLP-induced proliferation of BaF3 cells expressing hTSLPR/hIL-7Rα (CellTiter-Glo, RLU); stimulus cyTSLP QB11632 [7]: 0.012 nM
IC50, inhibition of TSLP-induced CCL17 release from primary human monocytes (ELISA, pg/mL); stimulus cyTSLP QB11632 [8]: 0.0027 nM
IC50, inhibition of TSLP-induced pSTAT5 (AlphaLISA, MFI) in BaF3 cells expressing hTSLPR/hIL-7Rα; stimulus hTSLP QB11630 [9]: 1.7 nM
IC50, inhibition of TSLP-induced pSTAT5 (AlphaLISA, MFI) in cultured primary human ILC2 cells; stimulus cyTSLP QB11632 [10]: 0.46 nM
IC50, inhibition of TSLP-induced pSTAT5 (AlphaLISA, MFI) in BaF3 cells expressing hTSLPR/hIL-7Rα; stimulus cyTSLP QB11632 [11]: 0.28 nM
IC50, inhibition of TSLP-induced proliferation of BaF3 cells expressing hTSLPR/hIL-7Rα (CellTiter-Glo, RLU); stimulus hTSLP QB11630 [12]: 0.0058 nM
IC50, inhibition of TSLP-induced CCL17 release from primary human monocytes (ELISA, pg/mL); stimulus hTSLP QB11631 [13]: 0.0013 nM
IC50, inhibition of TSLP-induced pSTAT5 (AlphaLISA, MFI) in cultured primary human ILC2 cells; stimulus hTSLP QB11630 [14]: 1.5 nM
Kd [15]: 0.0163 nM
Kd [16]: 0.0778 nM
Kd [17]: 0.00502 nM
Kd [18]: 0.0118 nM
Kd [19]: 0.831 nM
Kd [20]: 0.075 nM
Kd [21]: 0.0295 nM
Kd [22]: 0.0187 nM
Kd [23]: 0.0263 nM
IC50, inhibition of TSLP-induced pSTAT5 (AlphaLISA, MFI) in cultured primary human ILC2 cells; stimulus hTSLP QB11631 [24]: 3.1 nM
IC50, inhibition of TSLP-induced proliferation of BaF3 cells expressing hTSLPR/hIL-7Rα (CellTiter-Glo, RLU); stimulus hTSLP QB11631 [25]: 0.012 nM
IC50, inhibition of TSLP-induced proliferation of BaF3 cells expressing hTSLPR/hIL-7Rα (CellTiter-Glo, RLU); stimulus cyTSLP QB11633 [26]: 0.0022 nM

B2: anti-hTSLP IgG1-D265A antibody QB11764 (antibody, V domains shown)
VH: EVQLVESGGGLVQPGGSLRLSCAASGFDFSSYWISWVRQAPGKRPEWIASIDIDIDIADYASWAKGRFTISRDNSKNTLYLQMNSLRAEDTAVYYCVRNLGLWGPGTLVTVSS
VL: DIQMTQSPSSLSASVGDRVTITCQSSQNVYDKDALAWYQHKPGKRPKLLIYEASRLASGVPSRFSGSGSGTHFTLTISSLQPEDAATYYCAGTRIDNIYTFGDGTKVEIKR
notes: QB11548 altered for MabPair production; alterations are in the entries; also called lead anti-hTSLP antibody QB11764
IC50, inhibition of TSLP-induced proliferation of BaF3 cells expressing hTSLPR/hIL-7Rα (CellTiter-Glo, RLU); stimulus native hTSLP from healthy donor 2 [5]: 0.012 nM
IC50, inhibition of TSLP-induced proliferation of BaF3 cells expressing hTSLPR/hIL-7Rα (CellTiter-Glo, RLU); stimulus native hTSLP from healthy donor 1 [6]: 0.012 nM
IC50, inhibition of TSLP-induced proliferation of BaF3 cells expressing hTSLPR/hIL-7Rα (CellTiter-Glo, RLU); stimulus cyTSLP QB11632 [7]: 0.34 nM
fold lower binding affinity against QB10985 [27]: ~3 fold
IC50, inhibition of TSLP-induced proliferation of BaF3 cells expressing hTSLPR/hIL-7Rα (CellTiter-Glo, RLU); stimulus hTSLP QB11630 [12]: 0.1 nM
Kd [15]: 0.0595 nM
koff [15]: 0.000192 s⁻¹
kon [15]: 3.23e+06 M⁻¹ s⁻¹
Kd [16]: 0.154 nM
koff [16]: 0.000196 s⁻¹
kon [16]: 1.27e+06 M⁻¹ s⁻¹
Kd [17]: 0.004 nM
koff [17]: 0.000142 s⁻¹
kon [17]: 3.56e+07 M⁻¹ s⁻¹
Kd [19]: 1.27 nM
koff [19]: 0.000174 s⁻¹
kon [19]: 137000 M⁻¹ s⁻¹
Kd [20]: 0.131 nM
koff [20]: 0.000132 s⁻¹
kon [20]: 1.01e+06 M⁻¹ s⁻¹
IC50, inhibition of TSLP-induced proliferation of BaF3 cells expressing hTSLPR/hIL-7Rα (CellTiter-Glo, RLU); stimulus hTSLP QB11631 [25]: 0.17 nM
IC50, inhibition of TSLP-induced proliferation of BaF3 cells expressing hTSLPR/hIL-7Rα (CellTiter-Glo, RLU); stimulus cyTSLP QB11633 [26]: 0.12 nM

B3: chimeric anti-hIL-33 antibody QB10998 (antibody, human IgG1, kappa, V domains shown)
VH: EVMLVESGGGLVKPGGSLKLSCAASGFTFYSSAMSWVRQTPEKRLEWVATISSGGSNTYYPDSVKGRFTISRDNAKNTLYLQMSSLGSEDTAMYYCASAYYGRRYDAMDYWGQGTSVTVSS
VL: DIVMTQAAPSIPVTPGESVSISCKSSKSLLHSNGNTYLYWFLQRPGQSPQLLIYRMSNLASGVPDRFSGSGSGTAFTLRISRVEAEDVGVYYCMQHLENPYTFGGGTKLELNR
notes: Text says murine VH on human IgG4 constant regions; the printed HC entry looks like IgG1; also called chimeric antibody
IC50 [28]: 1.01 nM
IC50 [29]: 1.5 nM
binding result [30]: binds
